Data taken from PMC4674680, “An in cellulo-derived structure of PAK4 in complex with its inhibitor Inka1” (Nature Communications, 2015).

Experiments:
[1] = molecular target: T1, 6His–PAK4cat (PAK4 286–591) (human, UniProt O96013 286-591); experiment: kinase inhibition assay; 50 nM purified PAK4cat, 10 μM GST-Raf1S338 peptide, 10 μM ATP (γ32P), 25 mM HEPES pH 7.3, 50 mM KCl, 10 mM MgCl2, 30 °C, 20 min; inhibitor pre-incubated with the kinase on ice 10 min; values from the intercepts of the inhibition graphs; settings: both partners purified
T1 construct: human PAK4 catalytic domain, residues 286–591, in pSY5 (His tagged); Residues 297–589 are seen in PDB 4XBU; also called purified PAK4; source: E. coli BL21-CodonPlus(DE3), purified (Ni-NTA; semi-automated Akta system for crystallization)
T1 sequence (O96013 286-591): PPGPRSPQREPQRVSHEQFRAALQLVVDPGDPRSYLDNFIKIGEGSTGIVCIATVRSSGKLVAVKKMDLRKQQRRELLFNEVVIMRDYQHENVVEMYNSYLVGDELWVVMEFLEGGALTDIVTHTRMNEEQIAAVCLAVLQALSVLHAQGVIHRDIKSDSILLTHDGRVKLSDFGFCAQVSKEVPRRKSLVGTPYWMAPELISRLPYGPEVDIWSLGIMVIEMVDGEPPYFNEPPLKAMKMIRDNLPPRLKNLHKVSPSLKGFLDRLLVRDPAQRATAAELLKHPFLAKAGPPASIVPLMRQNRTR

[2] = molecular target: T1, 6His–PAK4cat (PAK4 286–591); experiment: crystal structure; in-vitro crystals, hanging drop, 6His–PAK4cat 5 mg/ml with 15-fold molar excess of peptide and two times molar excess of ATP, 0.1 M Tris–HCl pH 8.5, 12% PEG 8000, 25 °C, space group P4_(1)2_(1)2; settings: both partners purified

| Binder | Ki [1] | binding result [2] |
| --- | --- | --- |
| EAEDWTAALLNRGRSRQPLVLGDNCFADLVHNWMELPE (domain or fragment, GST carrier left out. Limits 166-203 are the paper's, taken from the 4XBR fusion: Flag/SGS 1-12, iBox 13-50, EF linker 51-52, PAK4 278-591 from 53 (12+38+2+314=366). Entity position = paper number …) [GST-iBox (Inka1 166–203)] | 30 nM |  |
| AEDWTAALLNRGRSRQPLVLGDW (synthetic peptide of the amino-terminal part of the human Inka1 iBox (iBox is 166–203); residues 178–189 are seen in the structure; also called iBox24; synthetic iBox 24mer peptide; source: synthetic peptide) [iBox 23mer synthetic peptide] |  | binds |
